Literature values as cited in publication PMC8168288.

Target: BCOR peptide (Homo sapiens) (UniProt Q6W2J9)
Assay: SPR

BCOR peptide (Homo sapiens), sequence (Q6W2J9 whole entry): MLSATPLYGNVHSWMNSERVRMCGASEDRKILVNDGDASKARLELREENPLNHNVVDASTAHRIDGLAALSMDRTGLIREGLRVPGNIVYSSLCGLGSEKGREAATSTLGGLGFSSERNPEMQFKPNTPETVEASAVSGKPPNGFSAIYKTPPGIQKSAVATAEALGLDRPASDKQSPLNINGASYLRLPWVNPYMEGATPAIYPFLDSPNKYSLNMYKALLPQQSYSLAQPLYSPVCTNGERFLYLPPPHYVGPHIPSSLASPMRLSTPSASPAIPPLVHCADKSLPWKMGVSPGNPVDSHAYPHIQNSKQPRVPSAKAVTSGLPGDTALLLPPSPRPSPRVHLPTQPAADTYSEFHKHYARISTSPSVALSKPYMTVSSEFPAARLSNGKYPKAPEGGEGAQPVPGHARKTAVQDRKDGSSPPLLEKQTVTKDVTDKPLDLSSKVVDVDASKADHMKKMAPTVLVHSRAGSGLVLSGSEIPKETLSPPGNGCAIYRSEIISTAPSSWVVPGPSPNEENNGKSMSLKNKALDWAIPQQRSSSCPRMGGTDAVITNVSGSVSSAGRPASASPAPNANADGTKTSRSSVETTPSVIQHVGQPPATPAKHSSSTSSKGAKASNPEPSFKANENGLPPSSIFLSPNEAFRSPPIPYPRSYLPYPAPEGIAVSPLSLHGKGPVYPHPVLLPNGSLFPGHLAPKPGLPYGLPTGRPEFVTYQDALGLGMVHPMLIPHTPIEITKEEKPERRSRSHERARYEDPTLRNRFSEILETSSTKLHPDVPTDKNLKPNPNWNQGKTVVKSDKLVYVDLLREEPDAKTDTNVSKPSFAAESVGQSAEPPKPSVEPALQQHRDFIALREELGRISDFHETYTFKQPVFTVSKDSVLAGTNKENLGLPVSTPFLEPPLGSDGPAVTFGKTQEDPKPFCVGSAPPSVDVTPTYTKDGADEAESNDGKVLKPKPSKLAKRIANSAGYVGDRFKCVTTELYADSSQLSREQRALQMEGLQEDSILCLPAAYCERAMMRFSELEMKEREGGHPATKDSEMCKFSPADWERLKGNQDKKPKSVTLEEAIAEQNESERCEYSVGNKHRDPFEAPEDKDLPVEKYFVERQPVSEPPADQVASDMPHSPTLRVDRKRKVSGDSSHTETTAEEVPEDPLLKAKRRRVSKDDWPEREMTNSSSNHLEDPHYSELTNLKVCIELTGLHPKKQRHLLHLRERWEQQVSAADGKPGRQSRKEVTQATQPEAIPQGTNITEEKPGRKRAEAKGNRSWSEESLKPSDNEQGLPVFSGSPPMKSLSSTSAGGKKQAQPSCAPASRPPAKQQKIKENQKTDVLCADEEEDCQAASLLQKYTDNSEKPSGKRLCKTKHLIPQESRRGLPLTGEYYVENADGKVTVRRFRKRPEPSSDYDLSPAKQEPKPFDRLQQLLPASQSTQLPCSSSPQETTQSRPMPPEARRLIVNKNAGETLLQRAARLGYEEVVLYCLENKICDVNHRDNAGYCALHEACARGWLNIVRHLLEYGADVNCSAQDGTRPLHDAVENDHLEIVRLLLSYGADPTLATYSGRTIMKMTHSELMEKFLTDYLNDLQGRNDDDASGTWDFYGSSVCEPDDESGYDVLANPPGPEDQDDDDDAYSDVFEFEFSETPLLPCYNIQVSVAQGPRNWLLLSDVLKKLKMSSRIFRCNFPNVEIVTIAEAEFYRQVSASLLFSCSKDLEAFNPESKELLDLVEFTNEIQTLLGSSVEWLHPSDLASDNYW

In the case of BCL6 BTB (from UniProt P41182), the Kd is given as 6 µM.
